From the supplement of paper PMC9170038

How the values were obtained:
MS2 coat protein [1] = assay: apparent KD of MS2 coat protein, switch OFF state (with FMN for OFF switches, without FMN for ON switches); designed switch direction (-1 OFF switch, 1 ON switch): -1; higher = weaker reporter binding; conditions: FMN input: 0 or 200 uM; Eterna round: R93 (includes R88 designs)
Summary of the method: (§1)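 For every design, apparent KD is the median of normalised binding-curve fits from its clusters. The RNA switches were transcribed on-chip from Illumina sequencing clusters and titrated with SNAP-549-labelled MS2 coat protein (twofold steps, 0.7 or 1.5 nM to 3 µM; 0.8–1.5 h to 10–20 min per step). Titrations used 100 mM Tris-HCl pH 7.5, 80 mM KCl, 4 mM MgCl2, without or with constant ligand.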

MS2 coat protein [2] = assay: apparent KD of MS2 coat protein, switch ON state; designed switch direction (-1 OFF switch, 1 ON switch): -1; higher = weaker reporter binding; conditions: FMN input: 0 or 200 uM; Eterna round: R93 (includes R88 designs)
Summary of the method: as §1

MS2 coat protein [3] = assay: apparent KD of MS2 coat protein; designed switch direction (-1 OFF switch, 1 ON switch): 1; higher = weaker reporter binding
Summary of the method: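 SNAP-549-labelled MS2 coat protein was titrated, doubling from 0.7 or 1.5 nM to 3 µM, over designed RNA switches transcribed on Illumina chips by stalled E. coli RNA polymerase. Runs were done without input, with 200 uM small-molecule ligand, or with an oligonucleotide input. Apparent KD is the per-design median over clusters of curve-fitted normalised fluorescence.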

[4] = input ligand: microRNA oligo, concentration not stated
[5] = Eterna round: R95, input ligand: FMN 200 uM
[6] = Eterna round: R95, input ligand: microRNA oligo, concentration not stated
[7] = Eterna round: R95, input ligand: none

Sequence	apparent KD of MS2 coat protein (MS2 coat protein [1]) [nM]	apparent KD of MS2 coat protein (MS2 coat protein [2]) [nM]	apparent KD of MS2 coat protein (MS2 coat protein [3]; input ligand: FMN 200 uM) [nM]	apparent KD of MS2 coat protein (MS2 coat protein [3]; [4]) [nM]	apparent KD of MS2 coat protein (MS2 coat protein [3]; input ligand: none) [nM]	also measured
AAAAGCUCAGGAUAUACGGUCUGUUGUUGAAAAAGUAAAAAACAUGAGGAUCACCCAUGUAGAAGGGAGCGAAA [Exclusion2-cac1]	115	39.7	–	–	–	–
GGUUGUGGAGGAUAUACAUGAGGAUCACCCAUGUGAGAGAAAAAAGUGAGAAAGAAAAGUAGAAGGUCAUGACG [salish99-ex3-65]	46.8	33.8	–	–	–	–
AAGAAGUGAGGAUAUGCUUGUCGUCACAAAAGUGAUGACGAGCAGAAGGCACAUGAGGAUCACCCAUGUAAAGA [Opal 27]	49.9	37.1	–	–	–	–
UUAACACAUGAGGAUCACCCAUGUUAGGAUAUUGUGGUAGGAACAACUGGGAAACGCACAAGAAGGGACACACA [EX1 Malc#18 Mod 18 - Jieux - Exclusion 1]	26.6	29.2	–	–	–	–
AAGAAUGCAGGAUAUACAUGAGGAUCACCCAUGUAAAAGAAAGAGGGAAAAGAGAAAAGUAGAAGGGCAAAGAA [Cleopatra III]	37.6	26.1	–	–	–	–
CUCAUGUCAGGAUAUCAGUAGUAAAAAAAUAAAAUUACUACUGAGAAGGGACAUGAGGAUCACCCAUGUCCAAA [EX4 367: Super Stable 67]	36.1	93.1	–	–	–	–
AAAAAGGCAGGAUAUACAUGAGGAUCACCCAUGUAAAGAAAAGAAAGAUCCAAAGAAAGUAGAAGGGCCAAAAA [Ex3 sub 3]	170	48.8	–	–	–	–
AAUAAACAUGAGGAUCACCCAUGUGAGGAUAUACAAAUAAAUAAAAAUAAAAUAAAAAGUAGAAGGCACAAUAA [JR_Exc001_Sub001]	27.8	23.5	–	–	–	–
AUGAAGAACUAAGGAUAUUGAAUACAUAUGUUUAACAUGAGGAUCACCCAUGUGGGUUGCGGUAUCGAGAAGGUAGAAUAAUAG [Mat - same State NG 2 - JL mod - D92] (Eterna round: R96, puzzle: Same State NG 2)	–	–	95.7	70.3	123	–
GCCAGUGCGAAACUCACAUGAGGAUCACCCAUGUGCGUUGAGUAGGAUAUCCGGCUACUCGAGGCGGAGAAGGACUGGGUACUG [Eternabot solution 14] (Eterna round: R96, puzzle: Same State NG 3)	–	–	17.4	12.3	17.3	–
UGUUGUAUUACAGGAUAUCUAUUGUUAUUAUUUAGAGAAGGGUAUUCACAUGAGGAUCACCCAUGUAUAUACGAGGAAGUUGUG [JMF's solution 74] (Eterna round: R96, puzzle: Same State NG 1)	–	–	–	33	–	–
GCUAGGAUUAAAGCCAACAUGAGGAUCACCCAUGUAUGUUGGUAGGAUAUCGUUUGCAAAGCAAACGAGAAGGGCUAACCUAGC [Mat - Same State NG 3 - JL Mod - D67] (Eterna round: R96, puzzle: Same State NG 3)	–	–	88.3	73	92.6	–
UUGUUUCGUCAUUAACAUGAGGAUCACCCAUGUAUCGUCUCAAAGGAUAUAUAUGCUUGUUUGCUAUAGAAGGUUGAUUGUUGU [JR_SSNG3_Sub093] (Eterna round: R96, puzzle: Same State NG 3)	–	–	–	91.6	–	–
AAAGCACAUGAGGAUCACCCAUGUGGAAAUAACACAGGAUAUCCGGCCGAAACUAAGGUGGGAGAAGGGUGACCUA [Aeriste] (puzzle: Same State 1)	–	–	–	–	–	apparent KD of MS2 coat protein (MS2 coat protein [3]; [5]): 191 nM; apparent KD of MS2 coat protein (MS2 coat protein [3]; [6]): 40.2 nM; apparent KD of MS2 coat protein (MS2 coat protein [3]; [7]): 73.5 nM
UUAAUAAUGUAAGGAUAUACAUGAGGAUUUCUCGUAGAAGGUACAGGACAUGAGGAUCACCCAUGUAUCGCUCAGAAGAGCGUA [Mat - Same State NG 1 - JL mod - D24] (Eterna round: R96, puzzle: Same State NG 1)	–	–	1400	715	1750	–
UGCAUACAUGAGGAUCACCCAUGUCAACUUAGUCGAGGAUAUGGGCAGCCGUGAGGCGAACCAGAAGGCGAAUUGU [JL-ss1-3.02 ViennaUCT mod] (puzzle: Same State 1)	–	–	–	–	–	apparent KD of MS2 coat protein (MS2 coat protein [3]; [5]): 18.5 nM; apparent KD of MS2 coat protein (MS2 coat protein [3]; [6]): 43.8 nM; apparent KD of MS2 coat protein (MS2 coat protein [3]; [7]): 45.7 nM
GCUCGCGACGCAGGAUAUGGGUGCCUGUACAUGAGGAUCACCCAUGUUAAGGGACGGAAAACGAACCAGAAGGGCGUCACGAGC [Ceusdian] (Eterna round: R96, puzzle: Same State NG 2)	–	–	68.1	132	1120	–
CUGCAACAUGAGGAUCACCCAUGUAACCCGGUUACAGGAUAUGUGAUGGUGAUCGACAUGACAGAAGGGUGAUUGG [Indiinbi] (puzzle: Same State 1)	–	–	–	–	–	apparent KD of MS2 coat protein (MS2 coat protein [3]; [5]): 41.5 nM; apparent KD of MS2 coat protein (MS2 coat protein [3]; [6]): 21.5 nM; apparent KD of MS2 coat protein (MS2 coat protein [3]; [7]): 29.6 nM
AUUAUUAAUAUAGGAUAUGUAAAACAUGAGGAUCACCCAUGUGAUAUCGUGAGUAAGGAGAGAGAACAGAAGGAUAUUUUUUUU [JMF's solution 3] (Eterna round: R96, puzzle: Same State NG 2)	–	–	40.6	30.5	43.3	–
GUAGCAUACCGAGGAUAUUCAACAUGAGGAUCACCCAUGUGUUUGUUAUAGGCCAAAAGGCCUUGGGAGAAGGCGGAAUGCUAC [Xeonanis - 20 Mod16] (Eterna round: R96, puzzle: Same State NG 2)	–	–	9.03	9.65	12.9	–
AACAAAUACACAGGAUAUACAGCGGCAGCCACUGUAGAAGGGUGGGCGGGUUCCAACAUGAGGAUCACCCAUGUACCCAAUAAA [Gerace] (Eterna round: R96, puzzle: Same State NG 1)	–	–	161	234	699	–
CUACGCGCCGCAGGAUAUGCCGACCCGUGUUGAGCAGAAGGGCGAAACAUGAGGAUCACCCAUGUUGAAAGAGCGCAAAAUUAA [Erteerte] (Eterna round: R96, puzzle: Same State NG 1)	–	–	23.5	16.4	30.1	–
AUAAAACAUGAGGAUCACCCAUGUAAUCGCCAGACAGGAUAUAUAGUGGCAUUUGCAGGGAUAGAAGGGUCGUGGC [Lerainxege] (puzzle: Same State 1)	–	–	–	–	–	apparent KD of MS2 coat protein (MS2 coat protein [3]; [5]): 15.6 nM; apparent KD of MS2 coat protein (MS2 coat protein [3]; [6]): 35.1 nM; apparent KD of MS2 coat protein (MS2 coat protein [3]; [7]): 37 nM
UGUUGUUAAUUAGGAUAUGGACACAUGAGGAUCACCCAUGUAAUGUCGAUGCUAUGUGGACACGUUCAGAAGGAAUGGCUAACA [SameState NG2 #92] (Eterna round: R96, puzzle: Same State NG 2)	–	–	29.7	53.2	58.4	–
GUGGUCAGACAUGAGGAUCACCCAUGUGGAAUAAAUAACGUACAGGAUAUUCAAUAUAGGAUAUAGAAGAAGGGUAGAUUGGUG (Eterna round: R96, puzzle: Same State NG 3)	–	–	196	136	195	–
GGCGGAUCCACAUGAGGAUCACCCAUGUAGCGGAGACGCAAUGAGGAUAUCGAUGGGUUUCCCGUCGAGAAGGCAUAAACCGCC [JL SSNG3 3.93 mod 2] (Eterna round: R96, puzzle: Same State NG 3)	–	–	17.8	14.9	16	–
